Measured values: article PMC5548806

Tests used:
[1] = biological target: CU44 HA ectodomain double mutant F88E/V91W of HA2 fused to the foldon (before the foldon cleavage) (influenza A virus H1N1 A/Thailand/CU44/2006 | not stated); assay: SEC; foldon present (pre-thrombin); Superdex 200 in 50 mM Tris (pH 8.0), 100 mM NaCl, 0.5 ml/min; Fig. 1C
[2] = biological target: CU44 HA ectodomain mutant F88E of HA2 fused to the foldon (pre-thrombin) (influenza A virus H1N1 A/Thailand/CU44/2006 | not stated); assay: as above
[3] = biological target: CU44 HA ectodomain mutant G47E of HA2, foldon removed by thrombin (influenza A virus H1N1 A/Thailand/CU44/2006); assay: SEC; […] (pH 8.0), 100 mM NaCl, 0.5 ml/min; […]
[4] = biological target: CU44 HA ectodomain mutant R75L of HA2, foldon removed by thrombin (influenza A virus H1N1 A/Thailand/CU44/2006); assay: SEC; […] (pH 8.0), 100 mM NaCl, 0.5 ml/min; […]
[5] = biological target: CU44 HA ectodomain mutant R106E of HA2, foldon removed by thrombin (influenza A virus H1N1 A/Thailand/CU44/2006); assay: SEC; […] (pH 8.0), 100 mM NaCl, 0.5 ml/min; […]
[6] = biological target: CU44 HA ectodomain mutant S199F of HA1, foldon removed by thrombin (influenza A virus H1N1 A/Thailand/CU44/2006); assay: SEC; […] (pH 8.0), 100 mM NaCl, 0.5 ml/min; […]
[7] = biological target: CU44 HA ectodomain mutant V91W of HA2 fused to the foldon (pre-thrombin) (influenza A virus H1N1 A/Thailand/CU44/2006 | not stated); assay: SEC; foldon present (pre-thrombin); Superdex 200 in 50 mM Tris (pH 8.0), 100 mM NaCl, 0.5 ml/min; Fig. 1C
[8] = biological target: CU44 wild-type HA ectodomain (A/Thailand/CU44/2006), foldon removed by thrombin (influenza A virus H1N1 A/Thailand/CU44/2006); assay: SEC; […] (pH 8.0), 100 mM NaCl, 0.5 ml/min; […]

CU44 HA ectodomain double mutant F88E/V91W of HA2 fused to the foldon (before the foldon cleavage)
stoichiometry N [1]: 3

CU44 HA ectodomain mutant F88E of HA2 fused to the foldon (pre-thrombin)
stoichiometry N [2]: 3

CU44 HA ectodomain mutant G47E of HA2, foldon removed by thrombin (domain or fragment)
stoichiometry N [3]: 3

CU44 HA ectodomain mutant R75L of HA2, foldon removed by thrombin (domain or fragment)
stoichiometry N [4]: 3

CU44 HA ectodomain mutant R106E of HA2, foldon removed by thrombin (domain or fragment)
stoichiometry N [5]: 3

CU44 HA ectodomain mutant S199F of HA1, foldon removed by thrombin (domain or fragment)
stoichiometry N [6]: 3

CU44 HA ectodomain mutant V91W of HA2 fused to the foldon (pre-thrombin)
stoichiometry N [7]: 3

CU44 wild-type HA ectodomain (A/Thailand/CU44/2006), foldon removed by thrombin (domain or fragment)
stoichiometry N [8]: 3
